Experimental data: patent US8680241B2 (priority 2009, dated 2014)

Target: peptide-6 (SEQ ID NO. 15) (Mycobacterium tuberculosis, UniProt P9WPE7)

B1: VH2/VK3: humanized anti-peptide-6 IgG1; heavy chain variable region SEQ ID NO: 21, light chain variable region SEQ ID NO: 26 (antibody, V domains shown)
VH: QVTLKESGPALVKPTQTLTLTCSFSGFSLSTSNMGVGWIRQPAGKGLEWLLHILWNDSKYYNPALKSRLTISKDTYKNQVVLTMTNMDPVDTATYYCARMGGYYGNYGYYAMDYWGQGTLVTVSS
VL: QIVLTQSPATLSLSPGERATLSCTASSSVSSSYLHWYQQKPGKAPKLWIYSTSNLASGVPSRFSGSGSGTDYTLTISSLQPEDFATYYCHQYHRSPPTFGQGTKLEIK
modifications: IgG1 constant regions; VH2 amino acid sequence; VK3 amino acid sequence
**Q.** How did the “binding to peptide-6 directly compared to VH2/VK2 on the same plate” value turn out when B1 was run?
**A.** The value was “marginally the best binding”.
